The DeepSol protein solubility set

Assay: soluble on expression in E. coli; label from the status in PepcDB or PDB records

| Sequence | soluble on expression in E. coli |
| --- | --- |
| MSLTALYVQNKINGKIILPFSHSMTNVLRLNRSYGRTMLISNTYNQHFPQLTQEQLARNATKKVICGMSGGVDSSVSAFILQQQGYQVEGLFMKNWEEDDDTDYCTAAADLADAQAVCDKLGIKLHKINFAAEYWDNVFEHFLTEYKAGRTPNPDILCNKEIKFKAFLEYAAEDLGADYIATGHYVRRAGDNENAKLLRGLDPNKDQSYFLYTLSHKQVGQSLFPVGEIEKPIVRAIAEDLGLITAKKKDSTGICFIGERKFKDFLARYLPAQPGNIRTVDDEIIGRHDGLMYHTLGQRKGLGIGGLKNAGDEAWYVVDKDVENNELIVAQGHDHPRLFSKGLIASQLHWVDREPIRESLRCTVKTRYRQQDIPCVIEPIDDETIRVIFDEPQSAVTPGQSAVFYLGEVCLGGGIIAERIEGHHHHHH | soluble |
| MGSDKIHHHHHHMVTIQNDRFTATINEVGAELTHLVDQASHRDLIWNNDLWPKHAPVLFPAIGRSNEDSYLIDGQRYEMPQHGFVSGETFMIVDQTPTAVTLSLTANAATRVYYPFYFELQVTFTLVATGLNLTFSVQNHGQQDLSYSLGSHPAFNVPFEAGEAFTDYELVLDPAPTDLQQFEIVKTPNPYRSGKELPVTTDKGVIKLNYPMFDAGLIILKAPNLAHLTLQSTKSKHSISLNLDDFDYVTLWTKEGAQAPFLCLEPFNGLPDVAGDLRELATKEGNHHVAVGQSETMAYTITVD | not soluble |
| MGSDKIHHHHHHMAPLAPLALSELGPKLDRSIDPLWISRQSLEAEPNAFKPGCGWLPNDWMPLESIRKALRSATRREDDSLLGYSSPLGLSALRDLLARRAQSKGIEANLNQVLLTDSGTQAIDLVCRFLLKPDDVVLIDDPCYFNFHALLKVHQVKVVGIPYTPNGPDLEAFKEAIESYNPRLYITNSGIHNPTGATLSLSTAHQLLKLIDQSNLIVIEDDIFSDFEYTPAPRLAALDNLSRVIFIGSFSKTLSASIRCGYIIAKPEWIDQIADLKIATSFSHNGLSAKILHTALTDGSYRKHLDLLKVRLAQAMQETIAKLKSIGIEPWIEPKAGIFVWCRLPEGVDAAKIARFCLNRQVILAPGNAFSQAQSAGQFIRFNITQSNHDYIYKTLAEALLQESLEKQV | not soluble |
| MGSDKIHHHHHHMIWNIDYFCNLRCKSCNAWQGKIFFPEDQIDKHLQEMKNNGIKIVSVTGGEPTLNKNVVDIIRKLKENHFFTHIATNGTNPYVLRKLYPYLDAVTISLDSNIPEEHNAYRGLKIFDTVVSNIKEAKSKVKIVTANMLVTNFNYFKVGEIADFANNELGVPLSMCFPEQDAYYFQDFQVTNDMIRQAFSYAYENYHKHVFGNMRSYYKEAVDFIDGKGSRACKAGQEIFYTDYRGKVHPCFEHVEVVLNKKPTWDIYDNKCHKCFTECFLEPSIDHTFEAASLIGKIWWFNHVKRRDIKYIETKRPKQVPS | not soluble |
| MGSDKIHHHHHHMKKYYIYILTAVLPILWGACNNGDDIDTKHSIFSTEPMEHNGFDEWLLANYTYPYNVDFKYRMQDIESDHKYNLVPADYDKSVALAKIIKHVWMEAYTELAGPAFLRSYVPKTFHLIGSPAYDSSGTKVLGTAEGGKKITLYEVNSLDFENVDIEVLNEYYFKTMHHEFAHILHQKRNYDPSFDRITEGKYVGSDWYFYVAENGNSYLREDADAWPEGFVTAYAMSEAREDFVENIAMYVTHDQAYWDNMLKVAGTAGAAIINQKFTIVYNYMLETWGINLDDLREIVLRRQQEIPELDLSTIE | not soluble |
| AIAEALWTNKIEDPLSLMSFTVPPLRLLSAAMWQVTERRQVKHYGMLEEFVSLVTETIPELLNQHQRAQLILGLRARHLLELCRGKHQGSLKEIQPHLKRLCRPRVNKEFADEDMEESEACFLDLVRTLISNPKEKEHYFQNIFPEEYGPKFDKNLHALMEDFLLKLDRMVSVPDLSETVSWLRTCPSLLDDCIDSVSVPKDMKSLLEHHTAKGNLQDSEGNNCTFSSQSLPPLVQVVISSDHTESGEPSDLNGQDNDDEQASKTSSDGWTIKKIKLKTETEEEDNDQNWPITEAKSTGTRDGYDDGCLGEEPNQTQS | soluble |
| MSIAEFAYKEKPETLVLFDVDGTLTPARLTVSEEVRKTLAKLRNKCCIGFVGGSDLSKQLEQLGPNVLDEFDYSFSENGLTAYRLGKELASQSFINWLGEEKYNKLAVFILRYLSEIDLPKRRGTFLEFRNGMINVSPIGRNASTEERNEFERYDKEHQIRAKFVEALKKEFPDYGLTFSIGGQISFDVFPAGWDKTYCLQHVEKDGFKEIHFFGDKTMVGGNDYEIFVDERTIGHSVQSPDDTVKILTELFNL | soluble |
| MGSDKIHHHHHHMKVSADVRAMIERRKKNYSLEAPFYTSDEIFALDMEAIFRQHWIQVAVEPDVPEPGDYITVDIGNDSILIVRDDDMQVRAFHNVCRHRGARLCNTDKGSLGNIVCPYHSWTYNLNGDLMFAEHMGEQFDRCKHSLKAVHVENLAGLIFICLADNPPADFAVVRAAMEPYMLPHALASCKIAASIDIIEEGNWKLTMENNRECYHCVANHPELTISLYEYGFGYQRTPANEEGMAAFEETVARRTAQWEAMQLPSAEIERLADLVTGFRTQRLPLDRDGESQTLDAKVASKKLLGGFEQADLGGLSFWTQPNSWHHFMSDHIVSFSVIPLSAGKTLVRTKWLVHKDAREGIDYDVDNLTAVWRATNDQDRALVEYSQRGATSSAYEPGPYSPFTEGLVEKFCEWYIGRMAQYSNAPQTHDAGDTAPASHGEKVVSFKR | not soluble |
| KPGKQIPTLEDAKKELKIPDQDKEQNGNIARQRHVVNAYAVGRIADEEGLFRFQLDDKGKWGNPQLLVKKVRHMKVRYIYVSGCPEDDDAGKEETFKYTDKFDSAQNAVTPAGVEVLLSSGTDTKIAASSDNHIYAYRIDATIRGGNVCANRTL | not soluble |
| MWYQKTLTLSAKSRGFHLVTDEILNQLADMPRVNIGLLHLLLQHTSASLTLNENCDPTVRHDMERFFLRTVPDNGNYEHDYEGADDMPSHIKSSMLGTSLVLPVHKGRIQTGTWQGIWLGEHRIHGGSRRIIATLQGELEHHHHHH | soluble |
| MGSDKIHHHHHHMVAQLETPSANSSLSLPYPIEGLVQVFTSSHRNFFTSVMGQALRIAGQGTPVLIVQFLKGGIKQGQDRPIQLGQNLDWIRCDLPRCIDTPHLDESENQALQKLWLHTQQVVDEDKYSLVVLDELSLAIHFGLIPESDVLAFLAKRSPHVDIIFTGTEMPQSILDVADQITEIRRSHCP | not soluble |
| QVQLVQSGGGLVKPGGSLRLSCAASGFTFSSYAMSWVRQAPGKGLEWVSAISGSGGSTYYADSVKGRFTISRDNSKNTLYLQMSSLRAEDTAVYYCARPYLTYPQRRGPQNVSPFDNWGQGTMVTVSSASTKGPSVFPLAPSSKSTSGGTAALGCLVKDYFPEPVTVSWNSGALTSGVHTFPAVLQSSGLYSLSSVVTVPSSSLGTQTYICNVNHKPSNTKVDKKVEPKSCAAAHHHHHHGAAEQKLISEEDLNGAA | soluble |
| MRPKKDGLEDFLRLTPEIKKQLGSLVSDYCNVLNKEFTAGSVEITLRSYKICKAFINEAKAHGREWGGLMATLNICNFWAILRNNRVRRRAENAGNDACSIACPIVMRYVLDHLIVVTDRFFIQAPSNRVMIPATIGTAMYKLLKHSRVRAYTYSKVLGVDRAAIMASGKQVVEHLNRMEKEGLLSSKFKAFCKWVFTYPVLEEMFQTMVSSKTGHLTDDVKDVRALIKTLPRASYSSHAGQRSYVSGVLPACLLSTKSKAVETPILVSGADRMDEELMGNDGGASHTEARYSESGQFHAFTDELESLPSPTMPLKPGAQSADCGDSSSSSSDSGNSDTEQSEREEARAEAPRLRAPKSRRTSRPNRGQTPCPSNAAEPEQPWIAAVHQESDERPIFPHPSKPTFLPPVKRKKGLRDSREGMFLPKPEAGSAISDVFEGREVCQPKRIRPFHPPGSPWANRPLPASLAPTPTGPVHEPVGSLTPAPVPQPLDPAPAVTPEASHLLEDPDEETSQAVKALREMADTVIPQKEEAAICGQMDLSHPPPRGHLDELTTTLESMTEDLNLDSPLTPELNEILDTFLNDECLLHAMHISTGLSIFDTSLF | not soluble |
| MGSDKIHHHHHHMDTLNQIDISIIIPIYNVEKYLTVCIDSLKNQGGLRMEIILVNDGSTDLSGEIADEYAKKEERIKVIHQENGGASAARNVGLDIATEEYIAFLDSDDWIKDESLSLLYDEAVKHHADVVMGNMWLCHQDGSMDKPFKCISNGSIKELLSGKESFIELVKTCFYLPMPFKYIYNRKYLHKIQARFEEGIMHEDELWCPIVLCQAERMVITNIEFYYYRQNEESVMHTTSLARRLKSLFQVTEGLIKFSDQFVSSKTSVDLRSWWYVNILRLYSKAFTLLPNIKDSSYIVHKHYLDRFWRDCGQMIPESIQRCRNYYYKAEAGLKEYTDWRVSDWVAGVDCQIKAGKKVMLVFNTINGEDLQLKIEDVPVDWVITTDRKYFQQATIVVFHLPTLHYELENDQDKLEGQTWVSWHLESEKDDPGINDPEISELFDLLISDPQDSEGEQHPLLRLCRNYVNNG | not soluble |
| MGSDKIHHHHHHMGHDLPPLPSRDVHAVRWYVLSLPACHKGPAKGLKKELDRRVRLGEPTFDFFAPSFVEMRRREGHLVETHRPLLYNYVFIRSSVYEIFRLKRDFPLYNFLPSVDGRGSYPFVSDREMENLRWVARSYSDELPVYVPEAGYLRKGDRIRITDGRFKGVEASVVIQPGVGEREVMVCVDNWMWVPLLRVQPGEYEVISLAEEGKHVYTRLDNSRIQNGLHEALGRHWGSCGVTAADRELAAETLRTYGELQLDSAVMRCKLYSLLLPAYTILGDEERQKSLIGTIVSFLSLIRAEQSLALLLLTLYGCTDSSIYYYRAHELIDPWSRESSPKKSKLSLIRRLADYDRWLKHNE | not soluble |
| MSLIQDNEISSSTKTRIKALKFFSRKMLSELNFGGYRSIFKGLGLEFHEFRPYEDSDDARFIDWNVSSKADSIFSKVFKEDRGMNLHLLVDNSLSMSLGDKVNKKDVQDLLVSIFAHMAFFNNDKIGVTFFSSGTDKFIPSSKGHSHLGLILSETINRNLKPGSSLAYIFKNTAEYYKKRSLVIIISDFKANAYFKSLNVLSKRHNVIAIRISDFFDENFPKIGTLICEDIETGENFLVSGFSKSTLSGYKNYWTLDKIKWKKECIKKNISFIEIDTKEDVFKKLKILLKKGQEGHHHHHH | not soluble |
| MGSDKIHHHHHHMTKLYEPFYRLTIELTECEREIIGSRPFKRLAHLHHYGAAALRTPVTHSRYEHTIGVWSLTAHFFPSDQLLRLVALLHDIGHLPFSHAVEQPLGFNHHLLTERLIESQEVAKILKKHGFIPQDVIRRLNENTPVSNQEKLLSLDHLDSFLRDTTLAGTCSLIPHESLGRLSVRGNGIETDEETALLLASCIVKDHELFLDPFNLAMDALLAEAITLYMADKPLVSMENIPHMTDDEVLTLLRGSWNKKVHAHLKLLFSQQPTLVQTDDESSAKLTVTVRKVYEDRPLIRHGTAKGREMVEKKLAELQELKGRFSFVY | not soluble |
| MGSDKIHHHHHHMARETQCNRQTDCAQCPKATEGILVHRKFPKGQHFPPDKCTQNCILFILQGELLVNSEEYPGTTLREGQFILQSIGSKLELLALTDVNYVVYWFNEPPLICEQRYHEILQQSEAPLTYTPLVMTQRITNFMKDICDYLDEQMPCGAFIDLKCQELMYLIICYYPIPQLSKFFYPISSYTESFQYFVMQNYEKVKNVEEFAHLGGYTTTTFRRLFKNMYGVPVYEWILSKKREGILEDLQHTKQRITEISNRYGFDSLSHFAHFCKASFGDSPRALRTRAARGEKITALKTE | not soluble |
| MSKILVIAEHRRNDLRPVSLELIGAANGLKKSGEDKVVVAVIGSQADAFVPALSVNGVDELVVVKGSSIDFDPDVFEASVSALIAAHNPSVVLLPHSVDSLGYASSLASKTGYGFATDVYIVEYQGDELVATRGGYNQKVNVEVDFPGKSTVVLTIRPSVFKPLEGAGSPVVSNVDAPSVQSRSQNKDYVEVGGGNDIDITTVDFIMSIGRGIGEETNVEQFRELADEAGATLCCSAPIADAGWLPKSRQVGQSGKVVGSCKLYVAMGISGSIQHMAGMKHVPTIIAVNTDPGASIFTIAKYGIVADIFDIEEELKAQLAA | soluble |
